Where two headings read alike, the source gives them in different places.
Key:
BSA [1] = target: T1, BSA (UniProt P02769 25-607); test: phage ELISA, absorbance at 450 nm
T1 construct: Control protein in the input-phage ELISA; also called bovine serum albumin

[2] = target: T2, Peptide fragment of nAchR (Nicotinic acetylcholine receptor), 32 mer, biotinylated (N-terminal biotin); test: SPR (BIAcore X), biotinylated nAchR peptide on SA chip
T2 construct: Synthesised by Anigen; Immobilised on a streptavidin chip for SPR; also called biotinylated nAchR; biotinylated-nAchR peptide
T2 peptide: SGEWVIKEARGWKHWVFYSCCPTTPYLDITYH
Description: (§1) Bipodal-peptide binder peptides specific to ED-B, VEGF or nAchR which were repetitively found in DNA sequencing were synthesized from Anigen Inc. (Korea). Affinity was measured using BIAcore X instrument (Biacore AB, Uppsala, Sweden). ED-B and nAchR were immobilized on streptavidin (SA) chip (Biacore) by injecting 2,000 RU biotinylated-EDB. VEGF was immobilized on CM5 chip (Biacore) using EDC/NHS. PBS (pH 7.4) was used as a running buffer.
(§2) The above-mentioned peptides were synthesized and their affinities to fibronectin ED-B, VEGF, VCAM1, nAchR and HAS were measured using SPR Biacore system (Biacore AB, Uppsala, Sweden).

[3] = target: T2, Peptide fragment of nAchR (Nicotinic …); test: SPR (BIAcore X), biotinylated nAchR peptide on streptavidin chip, synthetic peptide as analyte
Description: as §1, §2

Human serum albumin [4] = target: T3, Human serum albumin (human, UniProt P02768 25-609); test: SPR (Biacore)
T3 construct: Bought protein; also called HSA; HAS
T3 sequence (P02768 25-609 limits assumed): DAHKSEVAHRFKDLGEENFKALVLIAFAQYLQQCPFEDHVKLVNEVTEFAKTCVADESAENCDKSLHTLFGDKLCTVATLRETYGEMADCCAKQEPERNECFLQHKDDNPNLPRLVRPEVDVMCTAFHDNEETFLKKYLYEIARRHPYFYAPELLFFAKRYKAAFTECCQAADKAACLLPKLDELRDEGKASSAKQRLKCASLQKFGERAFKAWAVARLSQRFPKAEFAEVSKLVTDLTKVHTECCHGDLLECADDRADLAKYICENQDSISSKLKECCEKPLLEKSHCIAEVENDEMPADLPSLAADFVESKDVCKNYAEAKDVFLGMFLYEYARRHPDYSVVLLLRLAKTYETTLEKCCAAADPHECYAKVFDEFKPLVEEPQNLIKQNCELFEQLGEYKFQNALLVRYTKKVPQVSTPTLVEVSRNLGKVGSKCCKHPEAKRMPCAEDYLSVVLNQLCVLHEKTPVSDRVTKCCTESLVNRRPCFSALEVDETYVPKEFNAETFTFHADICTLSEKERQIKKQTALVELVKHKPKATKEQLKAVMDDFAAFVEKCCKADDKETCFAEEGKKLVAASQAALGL

Streptavidin [5] = target: T4, Streptavidin (UniProt P22629 37-163, limits assumed); test: phage ELISA, absorbance at 450 nm
T4 construct: Control protein in the input-phage ELISA; also called straptavidin
T4 sequence (P22629 37-163 limits assumed): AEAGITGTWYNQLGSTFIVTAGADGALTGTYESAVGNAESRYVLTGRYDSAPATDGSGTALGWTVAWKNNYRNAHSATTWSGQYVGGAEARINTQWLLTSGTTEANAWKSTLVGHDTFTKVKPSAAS

Human serum albumin [6] = target: T3, Human serum albumin; test: SPR (Biacore), synthetic peptide; immobilisation of HSA not described
[7] = target: T5, Fibronectin ED-B protein (human fibronectin extra domain B, N-terminal His-tag) (human, UniProt P02751 1266-1356, biotinylated with sulfo-NHS-SS-biotin for biopanning, input-phage ELISA and SPR on the streptavidin chip); test: SPR, synthetic bipodal peptide on ED-B
T5 construct: domain: ED-B; Expressed in E. coli BL21 from pET28b; also called biotinylated-EDB; not shown: N-terminal His-tag from the pET28b vector
T5 sequence (P02751 1266-1356): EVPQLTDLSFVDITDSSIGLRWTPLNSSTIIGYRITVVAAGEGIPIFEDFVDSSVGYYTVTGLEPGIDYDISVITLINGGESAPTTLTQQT
Description: as §1
To verify cooperative effect of bipodal-peptide binder to antigen, we synthesized two peptides removing either N- or C-terminal region of peptide 2 to ED-B having excellent specificity in Table 3a for affinity measurement.

BSA [8] = target: T1, BSA; test: phage ELISA, absorbance at 450 nm; remark: listed apart in the source
Streptavidin [9] = target: T4, Streptavidin; test: phage ELISA, absorbance at 450 nm; remark: listed apart in the source
[10] = target: T5, Fibronectin ED-B protein (human …); test: SPR (BIAcore X), biotinylated ED-B on SA chip
Description: as §1, §2

[11] = target: T5, Fibronectin ED-B protein (human …); test: SPR (BIAcore X), biotinylated ED-B on streptavidin chip, synthetic peptide as analyte
Description: as §1, §2

[12] = target: T5, Fibronectin ED-B protein (human …); test: phage ELISA on 10 coated proteins (streptavidin, ED-B, acetylcholine α1, BSA, VCAM, TNF-α, thrombin, myoglobin, lysozyme, visfatin), anti-M13-HRP
Description: Specificity of recombinant phages to each protein was carried out using ELISA. Each protein (5 μg/ml) was seeded into wells (50 μl per well) in a 96-well ELISA plate and next day, all wells were washed with 0.1% PBST (Tween-20) three times, and blocked at room temperature for 2 hrs using 2% skim milk. Then, the solution was completely removed and the plate was washed with 0.1% PBST three times. Recombinant phages containing the peptide of the present invention were thoroughly mixed with 2% BSA. Each mixture (100 μl) was divided into wells coated with 10 proteins and kept to stand at 27° C. for 2 hrs. After washing with 0.1% PBST 5 times, HRP-conjugated anti-M13 antibodies (1:1,000 dilution; GE Healthcare) were added to each well and incubated at 27° C. for 1 hr. After washing with 0.1% PBST 5 times, 100 μl TMB was divided into each well to induce colorimetric reaction, followed by stopping the reaction adding 100 μl of 1 M HCl. The absorbance was measured at 450 nm.

[13] = target: T6, VEGF121 (human vascular endothelial growth factor) (human, UniProt P15692-9 27-147); test: phage ELISA, absorbance at 450 nm
T6 construct: Immobilised on a CM5 chip by EDC/NHS for SPR and coated on plates for phage ELISA; also called VEGF-Trx cut with thrombin
T6 sequence (looked up): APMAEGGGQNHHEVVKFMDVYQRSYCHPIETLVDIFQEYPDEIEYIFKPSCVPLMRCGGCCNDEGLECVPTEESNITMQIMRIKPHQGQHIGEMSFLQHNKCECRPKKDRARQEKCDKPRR

BSA [14] = target: T1, BSA; test: phage ELISA, absorbance at 450 nm; remark: listed apart in the source
[15] = target: T6, VEGF121 (human vascular endothelial …); test: phage ELISA, absorbance at 450 nm; remark: listed apart in the source
Human serum albumin [16] = target: T3, Human serum albumin; test: phage ELISA, absorbance at 450 nm
Streptavidin [17] = target: T4, Streptavidin; test: phage ELISA, absorbance at 450 nm; remark: listed apart in the source
STAT3 protein [18] = target: T7, STAT3 protein (UniProt P40763 1-770, limits assumed); test: phage ELISA of single clones on STAT3 against streptavidin
T7 sequence (P40763 whole entry): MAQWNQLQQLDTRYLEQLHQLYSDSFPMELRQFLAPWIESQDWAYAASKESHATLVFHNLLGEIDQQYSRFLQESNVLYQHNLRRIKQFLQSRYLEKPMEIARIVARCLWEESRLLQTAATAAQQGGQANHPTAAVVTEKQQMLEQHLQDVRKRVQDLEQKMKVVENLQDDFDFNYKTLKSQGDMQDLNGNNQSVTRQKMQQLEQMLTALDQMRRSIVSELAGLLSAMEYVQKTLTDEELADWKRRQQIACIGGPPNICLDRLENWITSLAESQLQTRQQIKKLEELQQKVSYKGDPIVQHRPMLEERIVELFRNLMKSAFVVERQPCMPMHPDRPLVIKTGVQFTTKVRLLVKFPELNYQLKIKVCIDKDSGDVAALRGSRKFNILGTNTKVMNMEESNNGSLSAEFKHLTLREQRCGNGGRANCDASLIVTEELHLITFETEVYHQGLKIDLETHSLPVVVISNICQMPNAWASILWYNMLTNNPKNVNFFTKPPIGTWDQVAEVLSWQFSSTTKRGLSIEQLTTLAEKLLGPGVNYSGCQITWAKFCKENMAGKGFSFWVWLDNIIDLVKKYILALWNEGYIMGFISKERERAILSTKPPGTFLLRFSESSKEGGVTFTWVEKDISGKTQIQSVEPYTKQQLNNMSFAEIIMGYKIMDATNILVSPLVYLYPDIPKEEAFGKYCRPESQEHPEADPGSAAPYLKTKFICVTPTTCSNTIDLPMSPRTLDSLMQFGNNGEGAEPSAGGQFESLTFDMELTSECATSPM
Description: STAT3 (10 μg/ml), BSA (10 μg/ml) and streptavidin (10 μg/ml) each was added to 30 wells (50 μl per well) in a 96-well ELISA plate and then kept to stand at 4° C. overnight. Next day, all wells were washed with 0.1% PBST three times, and blocked at room temperature for 2 hrs using 2% skim milk diluted with PBS. Then, the solution was removed and the plate was washed with 0.1% PBST three times. Phage peptide solution (100 μl) amplified from each clone was aliquoted to STAT3-bound wells and streptavidin protein-bound wells and kept to stand at 27° C. for 1.5 hrs. After washing with 0.1% PBST 10 times, HRP-conjugated anti-M13 antibodies (1:1,000 dilution; GE Healthcare) were added to each well and incubated at 27° C. for 1 hr. After washing with 0.1% PBST 5 times, 100 μl TMB was divided into each well to induce colorimetric reaction, followed by stopping the reaction adding 100 μl of 1 M HCl. The absorbance was measured at 450 nm to select phages which had the absorbance above 20-fold higher than BSA. XL1 cells were infected with these phages and spread in plate to produce 100-200 of plaques. […]
The phages recovered from the 4th biopanning step having the highest O/I ratio in each library were isolated as plaques. […] The DNA 10 sequencing was performed for 6 clones showing the absorbance value above 2-fold higher than streptavidin. […]

STAT3 protein [19] = target: T7, STAT3 protein; test: SPR (Biacore X), STAT3 (4000 RU) on CM5 chip, peptide at 2, 5 and 7.5 µM
Description: The peptide sequences were identified by DNA sequencing. Two peptides were synthesized (BPB1: QAYYIP […] LWGPEF; BPB2: HGFQWP […] AYQFLK).
The affinity of the bipodal-peptide binder (BPB1: QAYYIP […] LWGPEF) was measured using SPR (Biacore X). The STAT3 protein (4000 RU) was fixed onto the CM5 chip. The concentrations of 2 μM, 5 μM and 7.5 μM the bipodal-peptide binder were used.

BSA [20] = target: T1, BSA; test: phage ELISA, absorbance at 450 nm; remark: listed apart in the source
[21] = target: T6, VEGF121 (human vascular endothelial …); test: phage ELISA, absorbance at 450 nm; remark: listed apart in the source
Streptavidin [22] = target: T4, Streptavidin; test: phage ELISA, absorbance at 450 nm; remark: listed apart in the source

T1 sequence (P02769 25-607 limits assumed): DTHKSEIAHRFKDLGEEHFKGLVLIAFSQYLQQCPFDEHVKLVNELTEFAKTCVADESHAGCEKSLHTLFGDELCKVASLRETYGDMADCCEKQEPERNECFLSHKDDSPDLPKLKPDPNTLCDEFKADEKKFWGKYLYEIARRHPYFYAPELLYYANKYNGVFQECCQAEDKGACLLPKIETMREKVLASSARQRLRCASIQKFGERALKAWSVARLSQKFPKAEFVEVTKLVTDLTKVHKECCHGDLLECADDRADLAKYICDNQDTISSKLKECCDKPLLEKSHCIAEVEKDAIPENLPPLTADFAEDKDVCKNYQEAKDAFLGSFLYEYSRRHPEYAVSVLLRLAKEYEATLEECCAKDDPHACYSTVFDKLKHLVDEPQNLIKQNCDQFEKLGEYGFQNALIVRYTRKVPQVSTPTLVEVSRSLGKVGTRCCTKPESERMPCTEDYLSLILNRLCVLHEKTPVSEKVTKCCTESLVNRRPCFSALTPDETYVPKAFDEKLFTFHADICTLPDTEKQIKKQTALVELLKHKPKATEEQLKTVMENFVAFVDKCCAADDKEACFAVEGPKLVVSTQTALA

EASFWLGSWTWENGKWTWKGKGTLNR [Peptide 1 specific to nAchR (Table 3d), bipodal-peptide binder]
binding result (BSA [1]): no binding | koff [2]: 0.0085 s⁻¹ | kon [2]: 110000 M⁻¹ s⁻¹ | Kd [3]: 73 nM

AASPYKGSWTWENGKWTWKGGWRMKM [Peptide 1 specific to HSA (Table 3e), bipodal-peptide binder]
koff (Human serum albumin [4]): 0.02 s⁻¹ | kon (Human serum albumin [4]): 250000 M⁻¹ s⁻¹ | binding result (Streptavidin [5]): no binding | Kd (Human serum albumin [6]): 115 nM

HCSSAVGSWTWENGKWTWKGIIRLEQ [Peptide 2 specific to fibronectin ED-B (Table 3a), bipodal-peptide binder with tryptophan zipper]
Kd [7]: 43 nM | binding result (BSA [8]): no binding | binding result (Streptavidin [9]): no binding | koff [10]: 0.0008 s⁻¹ | kon [10]: 10000 M⁻¹ s⁻¹ | Kd [11]: 75 nM | fold absorbance over other proteins [12]: > 30 fold

HSHAFYGSWTWENGKWTWKGNPGWWT [Peptide 1 specific to MyD88 (Table 3f), bipodal-peptide binder]
binding result [13]: no binding

QAYYIPGSWTWENGKWTWKGLWGPEF (also called BPB1; Peptidel) [STAT3-specific bipodal-peptide binder Peptide 1]
binding result (BSA [14]): no binding | binding result [15]: no binding | binding result (Human serum albumin [16]): no binding | binding result (Streptavidin [17]): no binding | fold absorbance over streptavidin (STAT3 protein [18]): > 2 fold | Kd (STAT3 protein [19]): ~1700 nM

HGFQWPGSWTWENGKWTWKGAYQFLK (also called BPB2) [STAT3-specific bipodal-peptide binder Peptide 2]
binding result (BSA [20]): no binding | binding result [21]: no binding | binding result (Streptavidin [22]): no binding | fold absorbance over streptavidin (STAT3 protein [18]): > 2 fold
